Measurements published in patent US20130116185A1, “PHOSPHATIDYLINOSITOL 3-KINASES ACTIVITY REGULATOR INCLUDING THE FIFTH ZINC FINGER DOMAIN OF FOG2” (SNU R&DB FOUNDATION, priority 2010, published 2013).

How the values were obtained:
Format in all cases: cell-based
[1] = system: Hep3B cells; test: Apoptosis by FACS analysis in Hep3B cells; conditions: synthesized peptides, 48 hr of treatment, FIG. 4B
Experimental: PI3K inactivation is known to cause cancer cell apoptosis, and FOG2 is known to inhibit PI3K activity. To test whether PI3K inactivation by overexpressing FOG2 induces apoptosis, Hep3B cells treated with the peptide synthesized in <Experiment 3> were analyzed with FACS.

[2] = system: MCF 7; test: Apoptosis by FACS analysis in MCF7 cells; conditions: synthesized peptides, FIG. 7D
Text: FIG. 7D is a graph showing the apoptotic effect by synthesized zinc finger domain peptides of FOG2 in MCF7 cells according to FACS analysis;

[3] = system: MDA MB 231 cells; test: Cell migration, modified Boyden chamber method; conditions: 18 hr migration
Procedure, shortened: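 MDA MB 231 cells, transfected with FOG2 constructs (24 hr) or treated 2 days with 4 μM peptides/DMSO, were seeded serum-free (1×10^5) in Boyden chambers, serum-free below, 18 hr at 37° C. Giemsa-stained migrated cells counted in six random fields; mean cells per field.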

[4] = target: T1, PI3K (Homo sapiens, UniProt P27986); test: IGF-1-induced PI3K activation in Hep3B cells incubated with peptides; design: The cell lysates were immunoprecipitated with p85α (sc-1637, Santa Cruz) and Protein G-Sepharose beads; endogenous in cells; host or cells: Hep3B; conditions: 4 μM peptides, 48 hr, FIG. 2C
Experimental: (§1) For measurement of PI3K activity, 10 μl of sonicated PIP2 (1 μg/μl, Calbiochem), 10 μl of 100 mM MgCl2 and 1 μl of [-^32P]ATP (500 μCi/ml) were added to the kinase buffer (10 mM Tris-HCl (pH 7.4), 150 mM NaCl, 1 mM Na3VO4, 10 mM ZnCl2) and incubated at 37° C. for 30 min. After incubation, 20 μl of 6 N HCl was added to stop the reaction and PIP2 was extracted by treatment with 200 μl of methanol:chloroform (1:1) solution. The amount of radioactively labeled PIP2 in the extract was measured using a scintillator counter.
In addition, Hep3B liver cancer cells were incubated with 4 μM peptides for 48 hr and the PI3K activity was analyzed.

[5] = target: T1, PI3K; test: PI3K activity in MDA MB 231 cells incubated with zinc finger domain peptides; design: The cell lysates were immunoprecipitated with p85α (sc-1637, Santa Cruz) and Protein G-Sepharose beads; endogenous in cells; conditions: synthesized peptides, FIG. 5
Experimental: as §1
For peptide treatment, cells were trypsinized to detach them from a culture dish and their aliquot (2×10^5 cells) was incubated with 4 μM peptides in 100 mm dishes. The control was incubated with Mock (DMSO).

[6] = system: MDA MB 231 cells; test: Apoptosis by FACS analysis (propidium iodide) in MDA MB 231 cells; conditions: for number of apoptotic cells: transfected with 1 μg FOG2 fragment, 2 days, FIG. 7A
Experimental: PI3K inactivation has been reported to cause cancer cell apoptosis, and FOG2 is known to inhibit the PI3K activity. To test whether PI3K inactivation by overexpressing FOG2 induces apoptosis, MDA MB 231 cells overexpressed FOG2 were analyzed with FACS.
MDA MB 231 cells were incubated with Full-FOG2[1-1151], FOG2[1-412], FOG2[413-789] or FOG2[802-1151]. The cells (5×10^4) were seeded in a 12-well plate and transfected with 1 μg of Full-FOG2[1-1151], FOG2[1-412], FOG2[413-789] or FOG2[802-1151] using Lipofectamine 2000. The cells were incubated at 37° C. for 2 days and subject to FACS analysis.
The cells were incubated with FOG2 fragments and fixed with 70% ethanol for 16 hr. The fixed cells were stained using RNase (5 mg/ml) and propidium iodide ([…]). The amount of DNA in stained cells was analyzed with Cell Quest program of FACS caliber (Becton Dickinson).

[7] = target: T1, PI3K; test: PI3K activity in Hep3B cells transfected with FOG2 constructs (p85α immunoprecipitation, 32P-ATP/PIP2 kinase assay); design: The cell lysates were immunoprecipitated with p85α (sc-1637, Santa Cruz) and Protein G-Sepharose beads; endogenous in cells; host or cells: Hep3B; conditions: 100 ng/ml IGF-1 30 min, FIG. 1C
Experimental: To investigate the inhibitory effect to PI3K activity by FOG2 zinc finger domain, PI3K activity was analyzed using FOG2 mutants having modified zinc finger domain. Specially, it is known that IGF signaling pathway plays an important role in cancer and the increased IGF-1 level enhances the risk of various cancers in many researches.
Accordingly, the PI3K activity was increased by incubating Hep3B cells with IGF-1 and then measured when the cells were incubated with peptides having mutated FOG2 zinc finger domain.
After Hep3B cells incubation, 100 ng/ml IGF-1 (Insulin like growth factor-1) was added to the cells and incubated for 30 min.
Hep3B cells were transfected with pCK-flag (control), FOG2-wt (wild type) and FOG2 mutants having modified zinc finger domain (FOG2-ZF-5-m and FOG2-ZF-6-m). Two days later, the lysates were obtained using a lysis buffer (20 mM Hepes (pH7.4), 100 mM NaCl, 20 mM KAc, 10 mM MgCl2, 10 mM ZnCl2, 1 mM Na3VO4, 1% NPO4). The cell lysates were immunoprecipitated with p85α (sc-1637, Santa Cruz) and Protein G-Sepharose beads using the same method above. After binding to beads, the lysates were washed 2 times with the lysis buffer and one time with the wash buffer (0.1 M Tris-HCl (pH 7.4), 5 mM LiCl, and 0.1 mM Na3VO4).
as §1

[8] = system: MDA MB 231 cells; test: Cell proliferation MTT assay; conditions: transfected with 100 ng DNA, 3 days post-transfection, FIG. 6A
Procedure, shortened: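 Cells (2×10^3/well) were treated with 4 μM peptide for 3 days, or transfected with 100 ng FOG2 wild-type or zinc-finger mutant plasmid and assayed 3 days later. MTT (2 mg/ml) was added for 1 h at 37 °C, dissolved in DMSO, and absorbance was read at 590 nm.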

[9] = system: HCT116 cells; test: Apoptosis by FACS analysis in HCT116 cells; conditions: 2 days after transfection, FIG. 4A
Experimental: PI3K inactivation is known to cause cancer cell apoptosis, and FOG2 is known to inhibit PI3K activity. To test whether PI3K inactivation by overexpressing FOG2 induces apoptosis, HCT116 cells transfected with pCK-flag (control), FOG2-wt (wild type) and FOG2 mutants (FOG2-ZF-5-m and FOG2-ZF-6-m) were analyzed with FACS.

[10] = system: Akt; test: Akt phosphorylation by Western blot in transfected Hep3B cells after IGF-1 stimulation; conditions: FIG. 1D
Experimental: Hep3B cells were transfected with FOG2 mutants having modified zinc finger domain to measure the effect on the Akt signaling by FOG2-ZF-5m. The Akt activity was measured by analyzed Akt phosphorylation.
Hep3B cells were transfected with pCK-flag (control), FOG2-wt (wild type) and FOG2 mutants having modified zinc finger domain (FOG2-ZF-5-m and FOG2-ZF-6-m) and stimulated with IGF-1. The expression of Akt (Cell signaling Technology, USA), pAkt (Cell signaling Technology, USA) and GAPDH(Santa cruz, USA) were measured by Western blot analysis.

T1 sequence (P27986 whole entry): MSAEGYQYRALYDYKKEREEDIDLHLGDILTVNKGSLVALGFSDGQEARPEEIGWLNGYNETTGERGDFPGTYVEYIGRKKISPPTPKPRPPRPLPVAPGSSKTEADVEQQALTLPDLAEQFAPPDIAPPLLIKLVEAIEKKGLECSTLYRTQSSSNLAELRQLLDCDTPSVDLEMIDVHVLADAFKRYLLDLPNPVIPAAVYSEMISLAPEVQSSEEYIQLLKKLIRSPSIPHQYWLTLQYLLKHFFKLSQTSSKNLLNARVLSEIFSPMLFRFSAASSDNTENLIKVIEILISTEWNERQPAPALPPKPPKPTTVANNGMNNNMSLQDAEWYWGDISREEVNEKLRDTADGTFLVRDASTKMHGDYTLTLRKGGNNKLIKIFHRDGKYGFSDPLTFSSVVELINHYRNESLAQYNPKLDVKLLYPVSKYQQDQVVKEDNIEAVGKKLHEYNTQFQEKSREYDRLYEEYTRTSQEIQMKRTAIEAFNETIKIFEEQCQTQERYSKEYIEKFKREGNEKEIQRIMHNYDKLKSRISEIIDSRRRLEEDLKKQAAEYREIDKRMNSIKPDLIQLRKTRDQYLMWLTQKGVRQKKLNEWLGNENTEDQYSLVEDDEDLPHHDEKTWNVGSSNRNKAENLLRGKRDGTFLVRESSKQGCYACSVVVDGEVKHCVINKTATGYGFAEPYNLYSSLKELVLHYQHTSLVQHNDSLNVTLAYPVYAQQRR

ZF-5-wt-20: The peptide comprising a portion of the fifth zinc finger domain of FOG2 (20 amino acids) (CFECNITFNNLDNYLVHKKH)
apoptosis [1]: induced apoptosis | apoptosis [2]: promoted apoptosis | reduction of cell migration ([3]; 4 μM peptide, 2 days of treatment, FIG. 3B): reduce the cell migration | IGF-1-induced PI3K activation [4]: inhibited | PI3K activity [5]: decrease PI3K activity | apoptosis ([6]; synthesized peptides, FIG. 7C): promoted apoptosis

B1: FOG2-wt: The wild type of FOG2; full-length FOG2 cDNA cloned into the pCK-flag vector and overexpressed (protein)
chain: MSRRKQSKPRQIKRPLEDAIEDEEEECPSEETDIISKGDFPLEESFSTEFGPENLSCEEVEYFCNKGDDEGIQETAESDGDTQSEKPGQPGVETDDWDGPGELEVFQKDGERKIQSRQQLPVGTTWGPFPGKMDLNNNSLKTKAQVPMVLTAGPKWLLDVTWQGVEDNKNNCIVYSKGGQLWCTTTKAISEGEELIAFVVDFDSRLQAASQMTLTEGMYPARLLDSIQLLPQQAAMASILPTAIVNKDIFPCKSCGIWYRSERNLQAHLMYYCSGRQREAAPVSEENEDSAHQISSLCPFPQCTKSFSNARALEMHLNSHSGVKMEEFLPPGASLKCTVCSYTADSVINFHQHLFSHLTQAAFRCNHCHFGFQTQRELLQHQELHVPSGKLPRESDMEHSPSATEDSLQPATDLLTRSELPQSQKAMQTKDASSDTELDKCEKKTQLFLTNQRPEIQPTTNKQSFSYTKIKSEPSSPRLASSPVQPNIGPSFPVGPFLSQFSFPQDITMVPQASEILAKMSELVHRRLRHGSSSYPPVIYSPLMPKGATCFECNITFNNLDNYLVHKKHYCSSRWQQMAKSPEFPSVSEKMPEALSPNTGQTSINLLNPAAHSADPENPLLQTSCINSSTVLDLIGPNGKGHDKDFSTQTKKLSTSSNNDDKINGKPVDVKNPSVPLVDGESDPNKTTCEACNITFSRHETYMVHKQYYCATRHDPPLKRSASNKVPAMQRTMRTRKRRKMYEMCLPEQEQRPPLVQQRFLDVANLNNPCTSTQEPTEGLGECYHPRCDIFPGIVSKHLETSLTINKCVPVSKCDTTHSSVSCLEMDVPIDLSKKCLSQSERTTTSPKRLLDYHECTVCKISFNKVENYLAHKQNFCPVTAHQRNDLGQLDGKVFPNPESERNSPDVSYERSIIKCEKNGNLKQPSPNGNLFSSHLATLQGLKVFSEAAQLIATKEENRHLFLPQCLYPGAIKKAKGADQLSPYYGIKPSDYISGSLVIHNTDIEQSRNAENESPKGQASSNGCAALKKDSLPLLPKNRGMVIVNGGLKQDERPAANPQQENISQNPQHEDDHKSPSWISENPLAANENVSPGIPSAEEQLSSIAKGVNGSSQAPTSGKYCRLCDIQFNNLSNFITHKKFYCSSHAAEHVK
modifications: left off: small tags and cut ends
notes: The wild type of FOG2; full-length FOG2 cDNA cloned into the pCK-flag vector and overexpressed
PI3K activation by IGF-1 stimulation [7]: inhibited | reduction of cell migration ([3]; transfected 24 hr, FIG. 3A): approximately 80% | reduction of cell proliferation [8]: about 40% | apoptosis [9]: increased apoptosis | Akt phosphorylation [10]: decreased | Akt phosphorylation ([10]; listed as FOG2-ZF-wt): inhibited | number of apoptotic cells ([6]; listed as FOG2[1-1151]): reduces the apoptosis | number of apoptotic cells ([6]; listed as Full-FOG2[1-1151]): increased
